Measured values published in patent US20190315839A1.

Assays:
Assay in all cases: binding ELISA; OD450 on mutant D2VLP divided by OD450 on original pacD2VLP x100
[1] = target: W101G mutant DENV-2 VLP (Dengue virus serotype 2, strain 16681) (UniProt P29990)
[2] = target: K310E mutant DENV-2 VLP (Dengue virus serotype 2, strain 16681) (UniProt P29990)
[3] = target: E311R mutant DENV-2 VLP (Dengue virus serotype 2, strain 16681) (UniProt P29990)

In the case of 4G2 (antibody), the Relative binding (%) [1] is reported as 9%, the Relative binding (%) [2] is reported as 110% and the Relative binding (%) [3] is reported as 99.4%.
